B1: SB7: anti-CDCP1 antibody by single B cell technique; VH SEQ ID NO: 277, VL SEQ ID NO: 327 (antibody, V domains shown)
VH: QVQLQQSGPELVSPGESVKISCKGSGYTFTDYAVHWVKQSHSKSLEWIGVKSVYYGITKYSQNFKDKATMTVDKSSSTAYMELARLTSEDSAIYYCARDSYGSSRGYFDYWGQGTTLTVSS
VL: DIKMTQSPSSIYVSPGERVTITCKASQDINSFLSWFQQKPGKSPKTLIYRANRLVDGVPSRFSGSGSGQDYSLTISSLEYEDMGIYYCLQYDEFPRTFGGGTKLEIK
modifications: SB7 heavy chain variable region; SB7 light chain variable region
B2: SB5: anti-CDCP1 antibody by single B cell technique; VH SEQ ID NO: 275, VL SEQ ID NO: 325 (antibody, V domains shown)
VH: QVQLRESGPGLVAPSQSLSITCTVSGFSLTDFGVNWVRQPPGKGLEWLGIIWANGRIEYNSALKSRLSISKDNSRSQVFLKLNSLQTDDTARYYCARDHDYDVEAMDYWGQGTSVTVSA
VL: QIVLTQSPAIKSASPGEKVTMTCSASSSVIYMHWYQQKSGSSPKRWIYDTSKLASGVPVRFSGSGSGTSYSLTISTMEAEDAATYYCQQWSSYPPTFGGGTKVEIK
modifications: SB5 heavy chain variable region; SB5 light chain variable region
B3: SB4: anti-CDCP1 antibody by single B cell technique; VH SEQ ID NO: 274, VL SEQ ID NO: 324 (antibody, V domains shown)
VH: QVQLQQSGAELVRPGTSVKISCKASGYTFTNYWLGWVKQRPGHGLEWIGDNYPGDNYRNFNEKFKGKATLTTDASSSTAYLQLSSLISEDSAVYFCTRSGGSRYYTMDYWGQGTSVTVSS
VL: DIVMTQAAFSNPVTLGTSASISCRSSRSLLHNNGITYLYWYLQKPGQSPQLLIYQMSNLASGVPDRFHSSGSGTDFTLSISRVEAEDVGVYYCAQNLDLPYTFGGGTKLEIK
modifications: SB4 heavy chain variable region; SB4 light chain variable region
B4: SB6: anti-CDCP1 antibody by single B cell technique; VH SEQ ID NO: 276, VL SEQ ID NO: 326 (antibody, V domains shown)
VH: QGQMQQSGAELVKPGASVKLSCKTSGFTFNSSYITWLKQKPGQSLEWIAWIFAGTGGTYYNEKFTDKAQLTVDTTSSTAYMQFSSLTTEDSAIYYCARHGLGYDYWGQGTTLTVSS
VL: SIVMTQTPKFLLVSAGDRVTITCKASQSVNTDVAWYQQKSGQSPKLLIYSASNRYTGVPDRFTGSGYGTDFTFTISTVQAEDLAVYFCQQDHSSPPWTFGGGTKLEIK
modifications: SB6 heavy chain variable region; SB6 light chain variable region
B5: SB1: anti-CDCP1 antibody by single B cell technique; VH SEQ ID NO: 271, VL SEQ ID NO: 321 (antibody, V domains shown)
VH: QVQLQQSGPDLVRPGESVKISCKGSGYTFTDHAIHWVRQSHAKSLEWIGVISFSYDNTKYNQNFKGKATMTVDKSSNTAYMELARLTSEDSAIYYCARDCYGSNRGYFDYWGQGTTLTVSS
VL: DIRMTQSPSSMYASLGERVTITCKASQDINRFLSWFLQRPGKAPKTLIYRANNLVEGVPSRFSGSGSGQDYSLIISNLEYEDMGIYYCLQYDEFPRTFGGGTKLEIK
modifications: SB1 heavy chain variable region; SB1 light chain variable region

The molecules below were run on MDA-MB-231 cells (assay: Endocytosis capacity of single B cell antibodies). Conditions: MDA-MB-231, 2 h at 37° C., antibody 1.5 μg/mL.
Type: cell-based, human
Description: The endocytosis capacity of the antibody was detected for 0.5 to 2 hours. MDA-MB-231 cells were subjected to digestion with 5 mM EDTA, and plated at 2×10^4 cells/well after cell counting. After adding an Fc blocker (Human TruStain FcX™, Biolegend, 422302) and blocking at room temperature for 10 mins, a test antibody (1.5 μg/mL) was added, and the mixture was incubated at 4° C. for 30 mins, centrifuged, and washed twice with PBS+2% FBS, then the cells were divided into four equal portions (labeled as 0 h, 0.5 h, 1 h, 2 h), cells labeled as 0.5 h, 1 h, 2 h time points were added to 200 μL of cell culture medium, and cultured at 37° C. for 0.5 h, 1 h, 2 h, respectively. Cells at 0 h point were centrifuged, a secondary antibody (PE anti-human IgG Fc Antibody, Biolegend, 410708) was added, and the mixture was incubated at 4° C. for 30 mins, centrifuged, and washed twice with PBS+2% FBS, and detection was performed using a flow cytometer. After incubation of cells labeled as 0.5 h, 1 h, and 2 h points at 37° C. was completed, a secondary antibody was added (in the same steps as those at 0 h point), Geo-MFI of the signal under the same voltage was collected as detection signal at 0 h, and antibody internalization rate was calculated according to the following equation: Internalization (%)=(Geo-MFI (0 h)-Geo-MFI (2 h))/Geo-MFI (0 h)×100%.
In the case of B1, the “Internalization MDA-MB-231 (%)” value is reported as 31.67%.
B2 was tested, and the “Internalization MDA-MB-231 (%)” value was 15.63%.
In the case of B3, the “Internalization MDA-MB-231 (%)” value is reported as 83.16%.
With B4 the “Internalization MDA-MB-231 (%)” value was 63.21%.
For B5, the “Internalization MDA-MB-231 (%)” value was 34.65%.

Reference: patent US20260250410A1, “ANTIBODY AND USE THEREOF” (SICHUAN HUIYU PHARMACEUTICAL CO., LTD., priority 2022, published 2026)
